Assay results from publication PMC4742562, “Structure and Interactions of a Dimeric Variant of sHIP, a Novel Virulence Determinant of Streptococcus pyogenes” (Frontiers in Microbiology, 2016).
Entries after “also recorded” stand apart in the source; their conditions may differ.

What was measured:
[1] = ref Rydengård et al., 2007; cited from earlier work
S. pyogenes = settings: ref Shannon et al., 2010; cited from earlier work
sHIP = settings: previous studies; ref Wisniewska et al., 2014; cited from earlier work
From the text: In a recent study, we quantitatively analyzed and compared S. pyogenes proteins in the growth medium of a strain that is virulent to mice (AP1), with a non-virulent strain (SF370).

[2] = Analytical ultracentrifugation, sedimentation velocity (oligomeric state in solution); format: physicochemical; settings: 20°C, 50000 rpm, Beckman XL-I, 20 mM MES, pH 5.5, SEDFIT c(S)
Method: Sedimentation velocity experiments were performed at 20°C and 50000 rpm using a Beckman XL-I instrument. Samples containing either sHIPwt or sHIPqp were in 20 mM MES buffer (2-(N-morpholino) ethanesulfonic acid), pH 5.5. The data were analyzed with SEDFIT using a continuous c (S) distribution (Schuck, [2000]). HYDROPRO (Ortega et al., [2011]) was used to calculate the theoretical sedimentation coefficient using the PDB IDs 4MER (sHIPwt) and 4PZ1 (sHIPqp), respectively.
Figure 2 Sedimentation velocity experiments for protein sHIP. The dotted lines indicate the theoretical sedimentation coefficient for a tetramer and a dimer respectively calculated using HYDROPRO and the structural coordinates for protein sHIPwt (PDB ID: 4MER) and protein sHIPqp (PDB ID: 4PZ1). The wild-type sHIPwt is shown in black, and the sHIPqp mutant in red respectively.

[3] = system: histidine-rich glycoprotein (HRG); assay: Interaction of the sHIP mutant with intact HRG and histidine-rich repeats; format: binding; settings: stated in abstract; no separate data shown
[4] = system: histidine-rich glycoprotein (HRG); assay: Antimicrobial assay: inhibition of the bactericidal activity of HRG against S. pyogenes AP1; format: cell-based; settings: recombinant His-tagged HRG 0.45 μM, S. pyogenes AP1 2 × 10^6 cfu/ml, 10 mM MES, pH 5.5, 5 mM glucose, various sHIP concentrations, 40 min, 37°C, cfu counts, at least three repeats, mean ± SD (values only in Figure 3)
Method: The S. pyogenes strain AP1 (40/58), was from the World Health Organization Collaborating Centre for Reference and Research on Streptococci, Prague, Czech Republic. The bacteria were cultivated in THY (Todd-Hewitt broth (Difco) supplemented with 0.2% yeast extract (Oxoid) at 37°C and 5% CO2 until reaching mid-log phase (OD 620 nm approximately 0.4). The bacterial cells were washed and resuspended in 10 mM Tris-HCl, pH 7.5, containing 5 mM glucose, to a concentration of 2 × 10^9 cfu (colony forming unit)/ml. Subsequently, the bacteria were diluted to a concentration of 2 × 10^6 cfu/ml in 10 mM MES buffer, pH 5.5, containing 5 mM glucose. Fifty microliters of the bacterial solution was incubated with recombinant His-tagged HRG (Creative Biomart) at a concentration of 0.45 μM together with various concentrations of protein sHIPwt or protein sHIPqp for 40 min at 37°C. Serial dilutions of the incubation mixtures were plated on TH agar, plates were incubated over night at 37°C and the number of cfu's were determined.
Experiments were repeated at least three times and mean values ± SD are shown.

Molecule | antimicrobial potency [1] | antibacterial activity against S. pyogenes (S. pyogenes) | affinity for sHIP (in words) (sHIP) | oligomeric state in solution [2] | oligomeric state in solution ([2]; listed as sHIP mutant) | interaction with intact HRG and the histidine-rich repeats in HRG [3] | inhibition of the bactericidal activity of HRG [4] | inhibition of the bactericidal activity of HRG ([4]; listed as sHIP mutant)
HRG: abundant plasma glycoprotein of approximately 60 kDa; recombinant His-tagged HRG (protein, left off: His-tag, end not stated, kept, abundant plasma glycoprotein of approximately 60 kDa; recombinant His-tagged HRG) VSPTDCSAVEPEAEKALDLINKRRRDGYLFQLLRIADAHLDRVENTTVYYLVLDVQESDCSVLSRKYWNDCEPPDSRRPSEIVIGQCKVIATRHSHESQDLRVIDFNCTTSSVSSALANTKDSPVLIDFFEDTERYRKQANKALEKYKEENDDFASFRVDRIERVARVRGGEGTGYFVDFSVRNCPRHHFPRHPNVFGFCRADLFYDVEALDLESPKNLVINCEVFDPQEHENINGVPPHLGHPFHWGGHERSSTTKPPFKPHGSRDHHHPHKPHEHGPPPPPDERDHSHGPPLPQGPPPLLPMSCSSCQHATFGTNGAQRHSHNNNSSDLHPHKHHSHEQHPHGHHPHAHHPHEHDTHRQHPHGHHPHGHHPHGHHPHGHHPHGHHPHCHDFQDYGPCDPPPHNQGHCCHGHGPPPGHLRRRGPGKGPRPFHCRQIGSVYRLPPLRKGEVLPLPEANFPSFPLPHHKHPLKPDNQPFPQSVSESCPGKFKSGFPQVSMFFTHTFPK | broad antimicrobial potency | antibacterial activity including activity against S. pyogenes | nanomolar to micromolar affinity; also recorded: high affinity | – | – | – | – | –
sHIPqp (protein, left off: His-tag, N-terminal, cleaved) SMKQDQLIVEKMEQTYEAFSPKLANLIEALDAFKEHYEEYATLRNFYSSDEWFRLANQPWDDIPSGVLSEDLLFDMIGDHNQLAADIADLAPIMAKHM | – | – | – | dimers in solution | only as dimers in solution | interacts with intact histidine-rich glycoprotein (HRG) and the histidine-rich repeats in HRG | inhibits the bactericidal activity of HRG to the same or even higher extent that wildtype sHIP; also recorded: inhibits the bactericidal activity of HRG more efficiently than protein sHIP wildtype; also recorded: maintain its full inhibitory capacity of HRG in antimicrobial assays | inhibits their antibacterial activity to the same or even higher extent as compared to the wild type protein sHIP
